Measurements as given in patent US20030068675, “Position dependent recognition of GNN nucleotide triplets by zinc fingers” (published 2003).

Legend:
Test in all cases: EMSA
Conditions in all cases: tags: MBP fusion
ZFP SBS#671 = target: T1, ZFP SBS#671 (synthetic)
T1 chain: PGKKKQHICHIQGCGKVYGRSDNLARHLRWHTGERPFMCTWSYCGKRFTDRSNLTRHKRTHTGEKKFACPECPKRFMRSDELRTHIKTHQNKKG
Procedure, shortened: (§1)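 Purified ZFP was titrated against labeled double-stranded target (1 nM or lower, at least 10-fold below expected Kd) carrying the natural binding site with flanks. Binding buffer was 10 mM Tris pH 7.5, 100 mM KCl, 1 mM MgCl2, 0.1 mM ZnCl2, 5 mM DTT, 10% glycerol, 0.02% BSA, with equilibration for at least 45 min. Bound and free target were separated on a 10% polyacrylamide gel.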

ZFP SBS#851 = target: T2, ZFP SBS#851 (synthetic)
T2 chain: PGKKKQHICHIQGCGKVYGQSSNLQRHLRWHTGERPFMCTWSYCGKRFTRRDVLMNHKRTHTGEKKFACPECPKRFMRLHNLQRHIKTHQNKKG
Procedure, shortened: as §1

ZFP SBS#846 = target: T3, ZFP SBS#846 (synthetic)
T3 chain: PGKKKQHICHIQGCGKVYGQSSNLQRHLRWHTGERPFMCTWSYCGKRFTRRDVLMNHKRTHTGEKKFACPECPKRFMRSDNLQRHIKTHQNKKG
Procedure, shortened: as §1

ZFP SBS#845 = ZFP SBS#845 (synthetic)
Chain of ZFP SBS#845 (synthetic) (chain, as listed by the source): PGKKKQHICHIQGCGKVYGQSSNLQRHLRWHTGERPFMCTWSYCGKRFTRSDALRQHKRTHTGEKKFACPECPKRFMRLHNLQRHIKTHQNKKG
Procedure, shortened: as §1

ZFP SBS#844 = ZFP SBS#844 (synthetic)
Chain of ZFP SBS#844 (synthetic) (chain, as listed by the source): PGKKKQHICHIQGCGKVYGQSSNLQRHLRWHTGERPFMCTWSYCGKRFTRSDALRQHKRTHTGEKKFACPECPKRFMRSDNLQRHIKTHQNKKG
Procedure, shortened: as §1

ZFP SBS#847 = target: T4, ZFP SBS#847 (synthetic)
T4 chain: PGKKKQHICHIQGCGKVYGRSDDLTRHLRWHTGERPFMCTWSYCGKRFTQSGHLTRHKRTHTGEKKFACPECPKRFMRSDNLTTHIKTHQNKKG
Procedure, shortened: as §1

ZFP SBS#835 = target: T5, ZFP SBS#835 (synthetic)
T5 chain: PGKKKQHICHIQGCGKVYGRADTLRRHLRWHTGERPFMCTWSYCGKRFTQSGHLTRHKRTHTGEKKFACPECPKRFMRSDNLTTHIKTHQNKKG
Procedure, shortened: as §1

ZFP SBS#763 = ZFP SBS#763 (synthetic)
Chain of ZFP SBS#763 (synthetic) (chain, as listed by the source): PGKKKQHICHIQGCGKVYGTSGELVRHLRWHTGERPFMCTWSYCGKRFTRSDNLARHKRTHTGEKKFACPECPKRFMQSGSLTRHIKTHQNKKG
Procedure, shortened: as §1

ZFP SBS#797 = target: T6, ZFP SBS#797 (synthetic)
T6 chain: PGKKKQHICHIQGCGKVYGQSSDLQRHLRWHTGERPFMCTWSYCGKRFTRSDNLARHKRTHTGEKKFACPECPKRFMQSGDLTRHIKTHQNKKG
Procedure, shortened: as §1

ZFP SBS#764 = ZFP SBS#764 (synthetic)
Procedure, shortened: as §1

ZFP SBS#804 = ZFP SBS#804 (synthetic)
Procedure, shortened: as §1

ZFP SBS#803 = target: T7, ZFP SBS#803 (synthetic)
T7 chain: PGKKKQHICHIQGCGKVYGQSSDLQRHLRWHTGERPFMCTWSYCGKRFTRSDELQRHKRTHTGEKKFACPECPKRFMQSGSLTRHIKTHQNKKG
Procedure, shortened: as §1

ZFP SBS#825 = ZFP SBS#825 (synthetic)
Procedure, shortened: as §1

ZFP SBS#818 = ZFP SBS#818 (synthetic)
Procedure, shortened: as §1

ZFP SBS#669 = target: T8, ZFP SBS#669 (synthetic)
T8 chain: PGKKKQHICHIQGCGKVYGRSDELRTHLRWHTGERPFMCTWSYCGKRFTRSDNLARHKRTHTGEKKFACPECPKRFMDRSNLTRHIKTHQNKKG
Procedure, shortened: as §1

ZFP SBS#831 = ZFP SBS#831 (synthetic)
Chain of ZFP SBS#831 (synthetic) (chain, as listed by the source): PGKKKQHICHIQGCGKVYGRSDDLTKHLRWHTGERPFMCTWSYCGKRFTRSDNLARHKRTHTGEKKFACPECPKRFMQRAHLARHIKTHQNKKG
Procedure, shortened: as §1

ZFP SBS#830 = ZFP SBS#830 (synthetic)
Chain of ZFP SBS#830 (synthetic) (chain, as listed by the source): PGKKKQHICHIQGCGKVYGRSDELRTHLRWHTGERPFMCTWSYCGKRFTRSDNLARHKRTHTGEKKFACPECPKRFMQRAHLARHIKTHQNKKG
Procedure, shortened: as §1

ZFP SBS#662 = ZFP SBS#662 (synthetic, UniProt P08047)
Chain of ZFP SBS#662 (P08047 other isoform, or with tags, fused parts or gaps): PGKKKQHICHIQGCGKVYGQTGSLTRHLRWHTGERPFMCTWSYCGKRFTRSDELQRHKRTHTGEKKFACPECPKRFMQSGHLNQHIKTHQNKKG
Procedure, shortened: as §1

ZFP SBS#664 = target: T9, ZFP SBS#664 (synthetic)
T9 chain: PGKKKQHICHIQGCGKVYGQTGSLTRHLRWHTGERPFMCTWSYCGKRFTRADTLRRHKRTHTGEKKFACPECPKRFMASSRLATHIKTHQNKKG
Procedure, shortened: as §1

ZFP SBS#663 = target: T10, ZFP SBS#663 (synthetic)
T10 chain: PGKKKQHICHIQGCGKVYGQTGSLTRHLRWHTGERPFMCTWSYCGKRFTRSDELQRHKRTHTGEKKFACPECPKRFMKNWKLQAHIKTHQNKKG
Procedure, shortened: as §1

ZFP SBS#800 = target: T11, ZFP SBS#800 (synthetic)
T11 chain: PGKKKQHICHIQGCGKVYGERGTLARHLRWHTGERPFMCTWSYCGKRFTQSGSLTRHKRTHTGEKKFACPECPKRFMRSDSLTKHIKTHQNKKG
Procedure, shortened: as §1

ZFP SBS#770 = target: T12, ZFP SBS#770 (synthetic)
T12 chain: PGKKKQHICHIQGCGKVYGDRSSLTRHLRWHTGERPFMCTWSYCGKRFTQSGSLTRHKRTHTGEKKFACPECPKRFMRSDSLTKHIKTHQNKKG
Procedure, shortened: as §1

ZFP SBS#841 = target: T13, ZFP SBS#841 (synthetic)
T13 chain: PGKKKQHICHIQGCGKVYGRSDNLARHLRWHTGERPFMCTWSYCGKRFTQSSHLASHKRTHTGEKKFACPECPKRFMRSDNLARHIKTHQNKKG
Procedure, shortened: as §1

ZFP SBS#840 = target: T14, ZFP SBS#840 (synthetic)
T14 chain: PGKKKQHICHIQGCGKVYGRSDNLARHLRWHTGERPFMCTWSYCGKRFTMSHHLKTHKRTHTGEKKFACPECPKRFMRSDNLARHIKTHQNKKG
Procedure, shortened: as §1

ZFP SBS#839 = target: T15, ZFP SBS#839 (synthetic)
T15 chain: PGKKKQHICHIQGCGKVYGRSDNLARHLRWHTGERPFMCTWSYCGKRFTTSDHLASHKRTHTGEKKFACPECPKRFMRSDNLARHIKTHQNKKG
Procedure, shortened: as §1

ZFP SBS#738 = target: T16, ZFP SBS#738 (synthetic)
T16 chain: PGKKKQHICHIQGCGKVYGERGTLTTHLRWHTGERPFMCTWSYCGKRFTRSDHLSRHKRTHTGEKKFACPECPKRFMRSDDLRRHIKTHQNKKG
Procedure, shortened: as §1

ZFP SBS#849 = target: T17, ZFP SBS#849 (synthetic)
T17 chain: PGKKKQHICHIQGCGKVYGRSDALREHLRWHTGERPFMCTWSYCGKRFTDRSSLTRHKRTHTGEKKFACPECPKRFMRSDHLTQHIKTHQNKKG
Procedure, shortened: as §1

ZFP SBS#837 = target: T18, ZFP SBS#837 (synthetic)
T18 chain: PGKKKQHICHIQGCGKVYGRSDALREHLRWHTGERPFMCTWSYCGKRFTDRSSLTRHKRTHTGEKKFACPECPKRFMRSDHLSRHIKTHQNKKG
Procedure, shortened: as §1

ZFP SBS#838 = target: T19, ZFP SBS#838 (synthetic)
T19 chain: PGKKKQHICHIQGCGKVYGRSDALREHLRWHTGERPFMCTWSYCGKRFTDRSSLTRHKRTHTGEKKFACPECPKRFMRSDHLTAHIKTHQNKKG
Procedure, shortened: as §1

ZFP SBS#834 = target: T20, ZFP SBS#834 (synthetic)
T20 chain: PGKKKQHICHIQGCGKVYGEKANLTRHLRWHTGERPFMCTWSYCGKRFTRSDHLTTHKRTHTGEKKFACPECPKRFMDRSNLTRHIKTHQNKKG
Procedure, shortened: as §1

ZFP SBS#833 = target: T21, ZFP SBS#833 (synthetic)
T21 chain: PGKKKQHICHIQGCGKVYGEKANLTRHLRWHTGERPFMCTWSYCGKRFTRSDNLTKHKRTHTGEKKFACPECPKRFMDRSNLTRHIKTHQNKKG
Procedure, shortened: as §1

ZFP SBS#832 = target: T22, ZFP SBS#832 (synthetic)
T22 chain: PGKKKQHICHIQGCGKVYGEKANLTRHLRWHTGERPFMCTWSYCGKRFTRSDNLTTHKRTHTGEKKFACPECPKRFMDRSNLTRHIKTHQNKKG
Procedure, shortened: as §1

ZFP SBS#765 = target: T23, ZFP SBS#765 (synthetic)
T23 chain: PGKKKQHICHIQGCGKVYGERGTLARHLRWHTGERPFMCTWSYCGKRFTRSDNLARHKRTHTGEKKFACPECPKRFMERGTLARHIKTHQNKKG
Procedure, shortened: as §1

ZFP SBS#766 = target: T24, ZFP SBS#766 (synthetic)
T24 chain: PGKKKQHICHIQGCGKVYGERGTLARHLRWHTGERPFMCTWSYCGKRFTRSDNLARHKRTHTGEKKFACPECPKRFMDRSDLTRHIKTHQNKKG
Procedure, shortened: as §1

B1: TCGGACGAGT (dsDNA)
DNA 1: TCGGACGAGT
DNA 2: ACTCGTCCGA
Kd (ZFP SBS#671): 64 nM

B2: GAGATGGATC (dsDNA)
DNA 1: GAGATGGATC
DNA 2: GATCCATCTC
Kd (ZFP SBS#851): 74 nM | Kd (ZFP SBS#846): 890 nM | Kd (ZFP SBS#845): 112 nM | Kd (ZFP SBS#844): 444 nM

B3: TAGGGAGCGT (dsDNA)
DNA 1: TAGGGAGCGT
DNA 2: ACGCTCCCTA
Kd (ZFP SBS#847): 150 nM | Kd (ZFP SBS#835): 150 nM

B4: GCAGAGGCTC (dsDNA)
DNA 1: GCAGAGGCTC
DNA 2: GAGCCTCTGC
Kd (ZFP SBS#763): 275 nM

B5: GCAGAGGCTG (dsDNA)
DNA 1: GCAGAGGCTG
DNA 2: CAGCCTCTGC
Kd (ZFP SBS#797): 17.5 nM | Kd (ZFP SBS#764): 255 nM

B6: GCAGCGGCTC (dsDNA)
DNA 1: GCAGCGGCTC
DNA 2: GAGCCGCTGC
Kd (ZFP SBS#804): 82.5 nM | Kd (ZFP SBS#803): 57.5 nM

B7: GAATGGGCAG (dsDNA)
DNA 1: GAATGGGCAG
DNA 2: CTGCCCATTC
Kd (ZFP SBS#825): 37.3 nM | Kd (ZFP SBS#818): 167 nM

B8: GACGAGTCGG (dsDNA)
DNA 1: GACGAGTCGG
DNA 2: CCGACTCGTC
Kd (ZFP SBS#669): 90 nM

B9: GGAGAGTCGG (dsDNA)
DNA 1: GGAGAGTCGG
DNA 2: CCGACTCTCC
Kd (ZFP SBS#831): 700 nM | Kd (ZFP SBS#830): 683 nM

B10: AGAGCGGCAC (dsDNA)
DNA 1: AGAGCGGCAC
DNA 2: GTGCCGCTCT
Kd (ZFP SBS#662): 50 nM | Kd (ZFP SBS#664): 125 nM | Kd (ZFP SBS#663): 115 nM

B11: TTGGCAGCCT (dsDNA)
DNA 1: TTGGCAGCCT
DNA 2: AGGCTGCCAA
Kd (ZFP SBS#800): 400 nM | Kd (ZFP SBS#770): 325 nM

B12: GAGTGTGAGG (dsDNA)
DNA 1: GAGTGTGAGG
DNA 2: CCTCACACTC
Kd (ZFP SBS#841): 300 nM | Kd (ZFP SBS#840): 625 nM | Kd (ZFP SBS#839): 625 nM

B13: GCGGGGTCCG (dsDNA)
DNA 1: GCGGGGTCCG
DNA 2: CGGACCCCGC
Kd (ZFP SBS#738): 120 nM

B14: GGGGCCCTGG (dsDNA)
DNA 1: GGGGCCCTGG
DNA 2: CCAGGGCCCC
Kd (ZFP SBS#849): 29.1 nM | Kd (ZFP SBS#837): 222 nM | Kd (ZFP SBS#838): 300 nM

B15: GACTAGGACC (dsDNA)
DNA 1: GACTAGGACC
DNA 2: GGTCCTAGTC
Kd (ZFP SBS#834): 186 nM | Kd (ZFP SBS#833): 136 nM | Kd (ZFP SBS#832): 408 nM

B16: GCCGAGGCCG (dsDNA)
DNA 1: GCCGAGGCCG
DNA 2: CGGCCTCGGC
Kd (ZFP SBS#765): 262 nM | Kd (ZFP SBS#766): 262 nM
